Experimental data from article PMC3000947.

Legend:
purified protein [1] = substrate: O=C1C(O)=CC(=O)c2c(O)cc(O)cc21; assay: purified protein; conditions: 2 mM GPP, 50 mM Hepes-NaOH pH 7.5, 5 mM MgCl2, 30 °C
purified protein [2] = substrate: Oc1cc(O)c2ccccc2c1; assay: purified protein; conditions: 2 mM GPP, 50 mM Hepes-NaOH pH 7.5, 5 mM MgCl2, 30 °C

B1: Fur7 (Streptomyces sp. KO-3988) (protein)
chain: MPGTDDVAVDVASVYSAIEKSAGLLDVTAAREVVWPVLTAFEDVLEQAVIAFRVATNARHEGDFDVRFTVPEEVDPYAVALSRSLIAKTDHPVGSLLSDIQQLCSVDTYGVDLGVKSGFKKVWVYFPAGEHETLARLTGLTSMPGSLAGNVDFFTRYGLADKVDVIGIDYRSRTMNVYFAAPSECFERETVLAMHRDIGLPSPSEQMFKFCENSFGLYTTLNWDTMEIERISYGVKTENPMTFFARLGTKVEHFVKNVPYGVDTQKMVYAAVTSSGEEYYKLQSYYRWRSVSRLNAAYIAARDKEST
B1 was tested, and the Km (purified protein [1]) was 48 ± 2 µM, the kcat (purified protein [1]) was 28 ± 3 × 10^-3 s^-1 and the kcat/Km (purified protein [1]) was 580 M⁻¹ s⁻¹. For the same protein, the Km (purified protein [2]) was 320 ± 20 µM, the kcat (purified protein [2]) was 0.13 ± 0.05 × 10^-3 s^-1 and the kcat/Km (purified protein [2]) was 0.41 M⁻¹ s⁻¹.
